± gives the standard deviation of the averaged measurements.
Test: total protein half-life in vivo (active degradation + dilution); higher = more stable protein
[1] = wild type E. coli NCM3722, growth: C-lim chemostat, doubling time 3 h
[2] = wild type E. coli NCM3722, growth: C-lim chemostat, doubling time 12 h
[3] = wild type E. coli NCM3722, growth: P-lim chemostat, doubling time 6 h
[4] = wild type E. coli NCM3722, growth: P-lim chemostat, doubling time 12 h
[5] = E. coli NCM3722 delta-clpP delta-lon delta-hslV, growth: N-lim chemostat, doubling time 6 h
[6] = E. coli NCM3722 delta-clpP, growth: N-lim chemostat, doubling time 6 h
[7] = E. coli NCM3722 delta-hslV, growth: N-lim chemostat, doubling time 6 h
[8] = E. coli NCM3722 delta-lon, growth: N-lim chemostat, doubling time 6 h
[9] = E. coli NCM3722 delta-smpB, growth: N-lim chemostat, doubling time 6 h
[10] = wild type E. coli NCM3722, growth: C-lim chemostat, doubling time 6 h
[11] = wild type E. coli NCM3722, growth: N-lim chemostat, doubling time 6 h
[12] = wild type E. coli NCM3722, growth: N-lim chemostat, doubling time 12 h

Sequence	total protein half-life in vivo [1] [h]	total protein half-life in vivo [2] [h]	total protein half-life in vivo [3] [h]	total protein half-life in vivo [4] [h]	total protein half-life in vivo [5] [h]	total protein half-life in vivo [6] [h]	total protein half-life in vivo [7] [h]	total protein half-life in vivo [8] [h]	total protein half-life in vivo [9] [h]	total protein half-life in vivo [10] [h]	total protein half-life in vivo [11] [h]	total protein half-life in vivo [12] [h]
MYTQTLYELSQEAERLLQLSRQQLQLLEKMPLSVPGDDAPQLALPWSQPNIAERHAMLNNELRKISRLEMVLAIVGTMKAGKSTTINAIVGTEVLPNRNRPMTALPTLIRHTPGQKEPVLHFSHVAPIDCLIQQLQQRLRDCDIKHLTDVLEIDKDMRALMQRIENGVAFEKYYLGAQPIFHCLKSLNDLVRLAKALDVDFPFSAYAAIEHIPVIEVEFVHLAGLESYPGQLTLLDTPGPNEAGQPHLQKMLNQQLARASAVLAVLDYTQLKSISDEEVREAILAVGQSVPLYVLVNKFDQQDRNSDDADQVRALISGTLMKGCITPQQIFPVSSMWGYLANRARYELANNGKLPPPEQQRWVEDFAHAALGRRWRHADLADLEHIRHAADQLWEDSLFAQPIQALLHAAYANASLYALRSAAHKLLNYAQQAREYLDFRAHGLNVACEQLRQNIHQIEESLQLLQLNQAQVSGEIKHEIELALTSANHFLRQQQDALKVQLAALFQDDSEPLSEIRTRCETLLQTAQNTISRDFTLRFAELESTLCRVLTDVIRPIEQQVKMELSESGFRPGFHFPVFHGVVPHFNTRQLFSEVISRQEATDEQSTRLGVVRETFSRWLNQPDWGRGNEKSPTETVDYSVLQRALSAEVDLYCQQMAKVLAEQVDESVTAGMNTFFAEFASCLTELQTRLRESLALRQQNESVVRLMQQQLQQTVMTHGWIYTDAQLLRDDIQTLFTAERY [P0DM85]	2.44 ± 0.21	5.52 ± 1.4	3.43 ± 0.63	6.3 ± 0.69	–	–	–	–	–	–	–	–
MTKMSRYALITALAMFLAGCVGQREPAPVEEVKPAPEQPAEPQQPVPTVPSVPTIPQQPGPIEHEDQTAPPAPHIRHYDWNGAMQPMVSKMLGADGVTAGSVLLVDSVNNRTNGSLNAAEATETLRNALANNGKFTLVSAQQLSMAKQQLGLSPQDSLGTRSKAIGIARNVGAHYVLYSSASGNVNAPTLQMQLMLVQTGEIIWSGKGAVSQQ [P0AB38]	3.38 ± 0.095	10.9 ± 0.91	5.94 ± 0.24	11.7 ± 1.2	5.22 ± 0.26	5.7 ± 0.39	6.59 ± 0.23	6.43 ± 0.46	6.495 ± 0.062	6.19 ± 0.46	6.102 ± 0.019	12.3 ± 0.41
MMIKTRFSRWLTFFTFAAAVALALPAKANTWPLPPAGSRLVGENKFHVVENDGGSLEAIAKKYNVGFLALLQANPGVDPYVPRAGSVLTIPLQTLLPDAPREGIVINIAELRLYYYPPGKNSVTVYPIGIGQLGGDTLTPTMVTTVSDKRANPTWTPTANIRARYKAQGIELPAVVPAGLDNPMGHHAIRLAAYGGVYLLHGTNADFGIGMRVSSGCIRLRDDDIKTLFSQVTPGTKVNIINTPIKVSAEPNGARLVEVHQPLSEKIDDDPQLLPITLNSAMQSFKDAAQTDAEVMQHVMDVRSGMPVDVRRHQVSPQTL	1.51 ± 0.55	4.13 ± 0.68	5.17	3.45	5.73	4.84	–	6.23 ± 1.4	5.56	2.85 ± 0.33	6.17	10.5
MKSVFTISASLAISLMLCCTAQANDHKLLGAIAMPRNETNDLALKLPVCRIVKRIQLSADHGDLQLSGASVYFKAARSASQSLNIPSEIKEGQTTDWININSDNDNKRCVSKITFSGHTVNSSDMATLKIIGDD	–	–	–	8.91	–	3.9	–	–	5.9	4.34	–	13
MNVIAILNHMGVYFKEEPIRELHRALERLNFQIVYPNDRDDLLKLIENNARLCGVIFDWDKYNLELCEEISKMNENLPLYAFANTYSTLDVSLNDLRLQISFFEYALGAAEDIANKIKQTTDEYINTILPPLTKALFKYVREGKYTFCTPGHMGGTAFQKSPVGSLFYDFFGPNTMKSDISISVSELGSLLDHSGPHKEAEQYIARVFNADRSYMVTNGTSTANKIVGMYSAPAGSTILIDRNCHKSLTHLMMMSDVTPIYFRPTRNAYGILGGIPQSEFQHATIAKRVKETPNATWPVHAVITNSTYDGLLYNTDFIKKTLDVKSIHFDSAWVPYTNFSPIYEGKCGMSGGRVEGKVIYETQSTHKLLAAFSQASMIHVKGDVNEETFNEAYMMHTTTSPHYGIVASTETAAAMMKGNAGKRLINGSIERAIKFRKEIKRLRTESDGWFFDVWQPDHIDTTECWPLRSDSTWHGFKNIDNEHMYLDPIKVTLLTPGMEKDGTMSDFGIPASIVAKYLDEHGIVVEKTGPYNLLFLFSIGIDKTKALSLLRALTDFKRAFDLNLRVKNMLPSLYREDPEFYENMRIQELAQNIHKLIVHHNLPDLMYRAFEVLPTMVMTPYAAFQKELHGMTEEVYLDEMVGRINANMILPYPPGVPLVMPGEMITEESRPVLEFLQMLCEIGAHYPGFETDIHGAYRQADGRYTVKVLKEESKK [P0A9H3]	–	–	–	11.6	–	5.68	–	–	–	–	–	–
MHVTAKPSSFQCNLKCDYCFYLEKESQFTHEKWMDDSTLKEFIKQYIAASGNQVYFTWQGGEPTLAGLDFFRKVIHYQQRYAGQKRIFNALQTNGILLNNEWCAFLKEHEFLVGISIDGPQELHDRYRRSNSGNGTFAKVIAAIERLKSYQVEFNTLTVINNVNVHYPLEVYHFLKSIGSKHMQFIELLETGTPNIDFSGHSENTFRIIDFSVPPTAYGKFMSTIFMQWVKNDVGEIFIRQFESFVSRFLGNGHTSCIFQESCKDNLVVESNGDIYECDHFVYPQYKIGNINKSELKTMNSVQLTAQKKRIPAKCQQCAYKPICNGGCPKHRITKVNNETVSYFCEGYKILFSTMVPYMNAMVELAKNRVPLYHIMDVAKQMENN	1.12 ± 0.083	2.03	–	–	–	–	–	–	–	1.77 ± 0.19	–	–
MNDLFSLAGKNILITGSAQGIGFLLATGLGKYGAQIIINDITAERAELAVEKLHQEGIQAVAAPFNVTHKHEIDAAVEHIEKDIGPIDVLVNNAGIQRRHPFTEFPEQEWNDVIAVNQTAVFLVSQAVTRHMVERKAGKVINICSMQSELGRDTITPYAASKGAVKMLTRGMCVELARHNIQVNGIAPGYFKTEMTKALVEDEAFTAWLCKRTPAARWGDPQELIGAAVFLSSKASDFVNGHLLFVDGGMLVAV [P0A9P9]	2.53 ± 0.38	7.912 ± 0.017	4.98 ± 0.91	6.82 ± 0.6	7.23	3.69	2.75	–	2.46	4.78 ± 0.49	3.01	–
MGTTKHSKLLILGSGPAGYTAAVYAARANLQPVLITGMEKGGQLTTTTEVENWPGDPNDLTGPLLMERMHEHATKFETEIIFDHINKVDLQNRPFRLNGDNGEYTCDALIIATGASARYLGLPSEEAFKGRGVSACATCDGFFYRNQKVAVIGGGNTAVEEALYLSNIASEVHLIHRRDGFRAEKILIKRLMDKVENGNIILHTNRTLEEVTGDQMGVTGVRLRDTQNSDNIESLDVAGLFVAIGHSPNTAIFEGQLELENGYIKVQSGIHGNATQTSIPGVFAAGDVMDHIYRQAITSAGTGCMAALDAERYLDGLADAK [P0A9P4]	3.16 ± 0.09	10.2 ± 1.8	5.05 ± 0.65	10.7 ± 0.32	4.04 ± 0.12	3.95 ± 0.56	3.57 ± 0.13	3.954 ± 0.035	3.71 ± 0.12	5.74 ± 0.6	3.8 ± 0.19	6.33 ± 0.39

Source: the supplement of paper PMC11246515
